# Results published in PMC4377584, “Sestrin2 inhibits mTORC1 through modulation of GATOR complexes” (Scientific Reports, 2015).
# Molecular target: T1, HA-GATOR2 (UniProt Q9NXC5 1-875; Q96S15 1-790; Q6PJI9 1-974; Q96EE3 1-360; P55735 1-322)
# T1 construct: MIOS; WDR24; WDR59; SEH1L; SEC13; that every subunit carried the HA tag is read from the name HA-GATOR2; also called immunopurified GATOR2 protein components; purified GATOR2; source: HEK293, transfected, immunopurified (anti-HA agarose beads, HA peptide); copies: + + + +
# Assay: pull-down; in vitro: purified proteins mixed in 20 ul buffer A (30 mM Tris-HCl pH8.0, 100 mM NaCl, 1 mM TCEP), incubated overnight with antibodies against the target protein, protein G/A bead, immunoblot; 1 ug Sestrin2; in Fig. 2D GATOR1 pulled down with NPRL2 antibody and detection with HA antibody
# Conditions: both partners purified
binder,measurement,value
"Recombinant Sestrin2 (natural protein, UniProt P58004 1-480, looked up, Full-length Sestrin2 cDNA; also called Sestrin2 protein; purified Sestrin2; source: Rosetta (DE3) pLysS E. coli, purified (Ni-NTA, amylase resin, TEV, HiTrap Q, Superdex 200); not shown: His6, N-terminal, cleaved; MBP, N-terminal, cleaved) MIVADSECRAELKDYLRFAPGGVGDSGPGEEQRESRARRGPRGPSAFIPVEEVLREGAESLEQHLGLEALMSSGRVDNLAVVMGLHPDYFTSFWRLHYLLLHTDGPLASSWRHYIAIMAAARHQCSYLVGSHMAEFLQTGGDPEWLLGLHRAPEKLRKLSEINKLLAHRPWLITKEHIQALLKTGEHTWSLAELIQALVLLTHCHSLSSFVFGCGILPEGDADGSPAPQAPTPPSEQSSPPSRDPLNNSGGFESARDVEALMERMQQLQESLLRDEGTSQEEMESRFELEKSESLLVTPSADILEPSPHPDMLCFVEDPTFGYEDFTRRGAQAPPTFRAQDYTWEDHGYSLIQRLYPEGGQLLDEKFQAAYSLTYNTIAMHSGVDTSVLRRAIWNYIHCVFGIRYDDYDYGEVNQLLERNLKVYIKTVACYPEKTTRRMYNLFWRHFRHSEKVHVNLLLLEARMQAALLYALRAITRYMT",binding result,binds
